We go through one molecule from publication PMC6886524 (Journal of structural and functional genomics, 2015).

The target in the test is Urease beta subunit (urea amidohydrolase) (UreB) of H. pylori (H. pylori, UniProt P69996 1-569). Description: crystal structure.
Sequence of Urease beta subunit (urea amidohydrolase) (UreB) of H. pylori (P69996 whole entry): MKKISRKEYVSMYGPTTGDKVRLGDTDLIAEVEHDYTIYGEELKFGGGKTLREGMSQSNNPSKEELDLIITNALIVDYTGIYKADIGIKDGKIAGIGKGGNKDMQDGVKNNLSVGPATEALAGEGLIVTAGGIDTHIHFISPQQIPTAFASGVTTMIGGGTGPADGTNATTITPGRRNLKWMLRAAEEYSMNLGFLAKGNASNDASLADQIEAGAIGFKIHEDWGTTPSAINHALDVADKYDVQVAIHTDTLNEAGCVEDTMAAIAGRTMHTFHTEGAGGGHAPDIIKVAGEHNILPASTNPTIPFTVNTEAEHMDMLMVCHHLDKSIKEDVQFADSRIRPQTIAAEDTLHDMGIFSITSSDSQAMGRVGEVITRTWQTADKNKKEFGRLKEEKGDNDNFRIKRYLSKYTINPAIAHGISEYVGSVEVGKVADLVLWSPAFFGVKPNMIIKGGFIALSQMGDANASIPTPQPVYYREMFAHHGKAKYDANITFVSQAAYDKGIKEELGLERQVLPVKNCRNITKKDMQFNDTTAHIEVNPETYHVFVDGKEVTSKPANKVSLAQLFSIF

B1: Urease alpha subunit (UreA) (urea amidohydrolase) of H. pylori (natural protein)
chain: MKLTPKELDKLMLHYAGELAKKRKEKGIKLNYVEAVALISAHIMEEARAGKKTAAELMQEGRTLLKPDDVMDGVASMIHEVGIEAMFPDGTKLVTVHTPIEANGKLVPGELFLKNEDITINEGKKAVSVKVKNVGDRPVQIGSHFHFFEVNRCLDFDREKTFGKRLDIASGTAVRFEPGEEKSVELIDIGGNRRIFGFNALVDRQADNESKKIALHRAKERGFHGAKSDDNYVKTIKE
On to B1, for which the binding result is “binds”.
